This is an account of results in PMC9977947, “Targeting ATAD3A-PINK1-mitophagy axis overcomes chemoimmunotherapy resistance by redirecting PD-L1 to mitochondria” (Cell Research, 2023).

No end group written: not given here.

In the test the target is T1, Flag-labeled truncated PINK1 (amino acids 321-509) (UniProt Q9BXM7 321-509).
T1 construct: PINK1, amino acids 321-509; also called C-lobe of kinase domain of PINK1; kinase domain C; source: HEK293T, purified using 3x Flag peptide
Description: pull-down; purified Flag-PINK1 (full length or truncated) incubated with biotin-labeled PD-L1 ICD peptide in 25 mM Tris-HCl pH 7.4, 150 mM NaCl, 1 mM EDTA, 0.05% NP-40, 10% glycerol for 12 h at 4 °C; streptavidin sepharose beads or anti-Flag M2 affinity gel 1.5 h; five washes; immunoblot. The following applies: both partners purified.

T1 sequence (Q9BXM7 321-509): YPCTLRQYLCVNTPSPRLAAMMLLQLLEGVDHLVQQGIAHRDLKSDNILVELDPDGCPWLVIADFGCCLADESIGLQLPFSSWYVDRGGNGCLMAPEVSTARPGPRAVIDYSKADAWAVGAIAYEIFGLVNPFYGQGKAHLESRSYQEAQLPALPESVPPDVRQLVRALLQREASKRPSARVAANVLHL

B1: Biotin-labeled PD-L1 ICD peptide (amino acids 262-290) (peptide, UniProt Q9NZQ7 262-290, looked up)
peptide: RKGRMMDVKKCGIQDTNSKKQSDTHLEET
modifications: also: biotin-labeled, position not given here
notes: PD-L1 (CD274), intracellular domain, amino acids 262-290; also called intracellular domain of PD-L1; intracellular region of PD-L1; source: synthetic peptide (GenScript)
Turning to B1, the binding result is “binds”.
